Reference: the Immune Epitope Database (IEDB)

Experiments:
HLA-C*08:02 = assay: IEDB peptide-MHC binding, purified MHC/direct/fluorescence; filed as Kd, often an IC50 or EC50 that approximates it; ≥ and ≤ were set here for values at or beyond the usual limits of such assays
HLA-C*06:02 = assay: as above
HLA-A*02:03 = assay: IEDB peptide-MHC binding, purified MHC/competitive/fluorescence; filed as Kd, often an IC50 or EC50 that approximates it; ≥ and ≤ were set here for values at or beyond the usual limits of such assays
HLA-A*02:19 [1] = assay: as above; settings: source organism: Human immunodeficiency virus type 1 (ELI ISOLATE)
HLA-B*15:09 = assay: as above
HLA-A*69:01 = assay: as above
HLA-A*02:01 [2] = assay: as above
HLA-A*02:06 = assay: as above
HLA-A*02:16 = assay: as above; settings: source organism: Human immunodeficiency virus type 1 (ELI ISOLATE)
HLA-A*02:11 [3] = assay: as above; settings: source organism: Human immunodeficiency virus type 1 (ELI ISOLATE)
HLA-B*83:01 = assay: as above
HLA-B*15:42 = assay: as above
HLA-B*45:06 = assay: as above
HLA-C*04:01 = assay: as above
HLA-B*08:01 = assay: as above; settings: source organism: Escherichia coli
HLA-B*15:01 [4] = assay: as above; settings: source organism: Escherichia coli
HLA-B*18:01 = assay: IEDB peptide-MHC binding, purified MHC/direct/fluorescence; filed as Kd, often an IC50 or EC50 that approximates it; ≥ and ≤ were set here for values at or beyond the usual limits of such assays
HLA-B*44:02 = assay: as above; settings: source organism: dengue virus type 1
HLA-B*44:03 = assay: IEDB peptide-MHC binding, purified MHC/competitive/radioactivity; filed as Kd, often an IC50 or EC50 that approximates it; ≥ and ≤ were set here for values at or beyond the usual limits of such assays; settings: source organism: Dengue virus 2 Jamaica/1409/1983
HLA-A*02:19 [5] = assay: IEDB peptide-MHC binding, purified MHC/direct/fluorescence; filed as Kd, often an IC50 or EC50 that approximates it; ≥ and ≤ were set here for values at or beyond the usual limits of such assays; settings: source organism: Francisella tularensis subsp. tularensis FSC033
HLA-A*02:01 [6] = assay: as above; settings: source organism: Francisella tularensis subsp. holarctica LVS
HLA-A*02:12 = assay: as above; settings: source organism: Francisella tularensis subsp. tularensis FSC033
HLA-A*02:11 [7] = assay: as above; settings: source organism: Francisella tularensis subsp. tularensis FSC033
HLA-B*27:05 = assay: as above; settings: source organism: Camelpox virus M-96
HLA-B*57:01 = assay: as above; settings: source organism: Camelpox virus M-96
HLA-B*07:02 = assay: as above; settings: source organism: Camelpox virus M-96
HLA-B*48:01 = assay: as above; settings: source organism: Camelpox virus M-96
HLA-B*58:01 = assay: as above; settings: source organism: Camelpox virus M-96
HLA-B*51:01 = assay: as above; settings: source organism: Camelpox virus M-96
HLA-A*03:01 = assay: as above; settings: source organism: Camelpox virus M-96
HLA-B*46:01 = assay: as above; settings: source organism: Camelpox virus M-96
HLA-B*15:17 = assay: as above; settings: source organism: Camelpox virus M-96
HLA-A*11:01 = assay: as above; settings: source organism: Camelpox virus M-96
HLA-B*15:01 [8] = assay: as above; settings: source organism: Camelpox virus M-96
HLA-A*31:01 = assay: as above; settings: source organism: Camelpox virus M-96
HLA-B*40:01 = assay: as above; settings: source organism: Camelpox virus M-96
HLA-A*01:01 = assay: as above; settings: source organism: Camelpox virus M-96
HLA-B*39:01 = assay: IEDB peptide-MHC binding, purified MHC/competitive/fluorescence; filed as Kd, often an IC50 or EC50 that approximates it; ≥ and ≤ were set here for values at or beyond the usual limits of such assays; settings: source organism: Vaccinia virus WR
[9] = source organism: Mycobacterium tuberculosis C
[10] = source organism: Human immunodeficiency virus type 1 (ELI ISOLATE)
[11] = source organism: Escherichia coli
[12] = source organism: dengue virus type 2
[13] = source organism: Francisella tularensis subsp. tularensis FSC198
[14] = source organism: Vaccinia virus WR

## FAPDRVGAL
HLA-C*08:02; [9]
  Kd: 0.673 µM
HLA-C*06:02; [9]
  Kd: 1.89 µM

## FLGRIWPS
HLA-A*02:03; [10]
  Kd: 0.00024 µM
HLA-A*02:19 [1]
  Kd: 0.0018 µM
HLA-B*15:09; [10]
  Kd: ≥ 20 µM
HLA-A*69:01; [10]
  Kd: ≥ 5 µM
HLA-A*02:01 [2]; [10]
  Kd: 0.00133 µM
HLA-A*02:06; [10]
  Kd: ≤ 0.0001 µM
HLA-A*02:16
  Kd: ≤ 0.0001 µM
HLA-A*02:11 [3]
  Kd: ≤ 0.0001 µM

## FVYSVSFHK
HLA-B*83:01; [9]
  Kd: ≥ 5 µM
HLA-B*15:42; [9]
  Kd: ≥ 5 µM
HLA-B*45:06; [9]
  Kd: ≥ 5 µM
HLA-C*04:01; [9]
  Kd: ≥ 5 µM

## MERFSWHVA
HLA-B*83:01; [11]
  Kd: ≥ 5 µM
HLA-B*08:01
  Kd: ≥ 20 µM
HLA-B*15:01 [4]
  Kd: ≥ 20 µM
HLA-B*15:42; [11]
  Kd: ≥ 5 µM
HLA-B*45:06; [11]
  Kd: 4.81 µM
HLA-C*04:01; [11]
  Kd: ≥ 5 µM

## SEMGANFKA
HLA-B*18:01; source organism: dengue virus type 1
  Kd: 0.119 µM
HLA-B*44:02
  Kd: 15.9 µM
HLA-B*44:03
  Kd: 0.136 µM
HLA-B*83:01; [12]
  Kd: ≥ 5 µM
HLA-B*15:42; [12]
  Kd: ≥ 5 µM
HLA-B*45:06; [12]
  Kd: ≥ 5 µM
HLA-C*04:01; [12]
  Kd: ≥ 5 µM

## YMYQYIQEL
HLA-C*08:02; [13]
  Kd: 0.736 µM
HLA-A*02:19 [5]
  Kd: 0.002 µM
HLA-A*02:01 [6]
  Kd: ≤ 0.001 µM
HLA-A*02:12
  Kd: 0.002 µM
HLA-C*06:02; [13]
  Kd: 0.006 µM
HLA-A*02:11 [7]
  Kd: ≤ 0.001 µM

## YPAVINSNI
HLA-B*27:05
  Kd: ≥ 20 µM
HLA-B*57:01
  Kd: ≥ 20 µM
HLA-B*18:01; source organism: Camelpox virus M-96
  Kd: ≥ 20 µM
HLA-B*07:02
  Kd: 0.373 µM
HLA-B*48:01
  Kd: ≥ 20 µM
HLA-B*58:01
  Kd: ≥ 20 µM
HLA-B*51:01
  Kd: 0.296 µM
HLA-A*03:01
  Kd: ≥ 20 µM
HLA-B*46:01
  Kd: ≥ 20 µM
HLA-B*15:17
  Kd: ≥ 20 µM
HLA-A*11:01
  Kd: ≥ 20 µM
HLA-B*15:01 [8]
  Kd: ≥ 20 µM
HLA-A*31:01
  Kd: ≥ 20 µM
HLA-B*40:01
  Kd: ≥ 20 µM
HLA-A*01:01
  Kd: ≥ 20 µM
HLA-A*02:03; [14]
  Kd: 3.82 µM
HLA-B*15:09; [14]
  Kd: ≥ 20 µM
HLA-B*39:01
  Kd: 2.81 µM
HLA-A*69:01; [14]
  Kd: 0.596 µM
HLA-A*02:01 [2]; [14]
  Kd: ≥ 20 µM
HLA-A*02:06; [14]
  Kd: 4.11 µM
